Results: patent US20170327596A1

How the values were obtained:
[1] = molecular target: HLA/pTax complex (HLA-A0201 with the pTax peptide of HTLV-1 Tax), HLA/peptide complex used in surface plasmon resonance (human); test: surface plasmon resonance, soluble TCR and HLA/peptide complex
[2] = molecular target: HLA/pHuD complex (HLA-A0201 with the modified peptide pHuD), HLA/peptide complex used in surface plasmon resonance (human); test: as above
[3] = molecular target: pHuD peptide presented by HLA-A2 on T2 cells (human); test: cell-based or functional assay

Work on “wild type Tax-TCR, soluble TCR molecule (HLA-A0201-restricted TCR specific for the pTax peptide of HTLV-1 Tax)” yielded a Kd [1] of 1.8 µM, a half-life t1/2 [1] of 9.3 s and a Kd [2] of 123 µM.

“Tax-TCR expressed on transduced Jurkat cells or primary human T cells (pMP71 retroviral construct)” gave a kinetic of CD107 upregulation [3] of 4 h and a peptide needed to trigger a CD107 response [3] of 10 fold.
